Reference: patent publication US20110236411A1

Molecular target: purified folded MHC-complex (Example 34, allele and peptide not stated)
Assay: sandwich ELISA, W6/32 coated, HRP rabbit anti-β2m detection

In the case of “W6/32 mouse-anti-HLA-ABC antibody (Dako M0736)”, the fold of OD450 against the negative control β2m is reported as over 6 fold.
